Source: patent US20260242478A1 (published 2026)

How the values were obtained:
[1] = biological target: T1, Anti-CD28 Fab (SEQ ID NOs: 696, 697); test: phage ELISA; clonal phage on plate-captured biotinylated anti-CD28 Fab, anti-M13 HRP detection
T1 construct: Biotinylated and captured on neutravidin coated plates in the phage ELISA
T1 sequence (VH, as listed by the source, chain 1 of 2): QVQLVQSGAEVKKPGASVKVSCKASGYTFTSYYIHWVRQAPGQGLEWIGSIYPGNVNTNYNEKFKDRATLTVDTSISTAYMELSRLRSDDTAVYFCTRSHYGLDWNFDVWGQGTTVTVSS
T1 sequence (VL, as listed by the source, chain 2 of 2): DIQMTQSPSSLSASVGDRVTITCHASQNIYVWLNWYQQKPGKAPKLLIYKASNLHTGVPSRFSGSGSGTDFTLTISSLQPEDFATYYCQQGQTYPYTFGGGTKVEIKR
Procedure: (§1) After panning, phage infected bacteria were plated out and colonies picked into 96 well blocks. Clonal phage was then amplified and separated from bacterial cells via centrifugation.
(§2) Clonal phage were harvested as crude supematants and screened via standard ELISAs. […] Prior to the addition of clonal phage, wells were incubated with blocking buffer and CD28 antigen or blocking buffer alone. Without washing or aspirating, clonal phage supematants were then added to the wells and incubated for a short time. Wells were then washed followed by detection of bound phage using a horse radish conjugated anti-M13 antibody. Clonal phage of interest were then sent for sequence analysis.

[2] = biological target: T1, Anti-CD28 Fab (SEQ ID NOs: 696, 697); test: phage ELISA; clonal phage on plate-captured anti-CD28 Fab pre-incubated with CD28 antigen as competitor
Procedure: as §1, §2

[3] = biological target: Anti-CD28 Fab (SEQ ID NOs: 696, 697); test: phage binding ELISA on Fab coated plate; CD28 antigen as competitor
Target sequence in this assay (VH, as listed by the source, chain 1 of 2): as the sequence (VH, as listed by the source, chain 1 of 2) above
Target sequence in this assay (VL, as listed by the source, chain 2 of 2): as the sequence (VL, as listed by the source, chain 2 of 2) above
Procedure: as §1, §2

[4] = biological target: Anti-CD28 Fab (SEQ ID NOs: 696, 697); test: phage binding ELISA; biotinylated Fab on neutravidin plate, anti-M13 HRP detection
Target sequence in this assay (VH, as listed by the source, chain 1 of 2): as the sequence (VH, as listed by the source, chain 1 of 2) above
Target sequence in this assay (VL, as listed by the source, chain 2 of 2): as the sequence (VL, as listed by the source, chain 2 of 2) above
Procedure: as §1, §2

[5] = biological target: T2, Anti-CD28 Fab (SEQ ID NOs: 696, 697); test: phage binding ELISA on captured Fab; competitor: CD28 antigen pre-incubated in the wells
T2 construct: Biotinylated and captured on neutravidin coated plates in the phage ELISA
T2 sequence (VH, as listed by the source, chain 1 of 2): as the sequence (VH, as listed by the source, chain 1 of 2) above
T2 sequence (VL, as listed by the source, chain 2 of 2): as the sequence (VL, as listed by the source, chain 2 of 2) above
Procedure: as §1, §2

[6] = biological target: T3, Anti-CD28 Fab (SEQ ID NOs: 696, 697); test: phage ELISA; biotinylated anti-CD28 Fab on neutravidin plate, clonal phage supernatant, anti-M13 HRP detection;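 note: crude supernatants of single phage clones picked after panning were screened for binding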
T3 construct: In the phage ELISA the Fab was biotinylated and captured on neutravidin coated plates
T3 sequence (VH, as listed by the source, chain 1 of 2): as the sequence (VH, as listed by the source, chain 1 of 2) above
T3 sequence (VL, as listed by the source, chain 2 of 2): as the sequence (VL, as listed by the source, chain 2 of 2) above
Procedure: as §1, §2

[7] = biological target: T3, Anti-CD28 Fab (SEQ ID NOs: 696, 697); test: phage ELISA as above with wells pre-incubated with CD28 antigen as competitor
Procedure: as §1, §2

| Binder | Anti-CD28 Fab signal in the presence of CD28 [3] | Anti-CD28 Fab (SEQ ID NOs: 696, 697) signal [4] | Anti-CD28 Fab signal (phage binding ELISA) [6] | Anti-CD28 Fab signal in the presence of CD28 (phage binding ELISA) [7] | further results |
| --- | --- | --- | --- | --- | --- |
| YCDGHSVEYLDKCL (tested as crude clonal phage supernatant) [Phage-1003] | – | – | – | – | Phage binding ELISA, Anti-CD28 Fab signal [1]: 1.53; Phage binding ELISA, Anti-CD28 Fab signal in the presence of CD28 [2]: 0.08 |
| YCEGHTPVYMPKCL [Phage-1035] | 0.06 | 1.46 | – | – | – |
| YCDGHLALHMKKCL (tested as crude clonal phage supernatant) [Phage-1019 (Peptide-87 library peptide, SEQ ID NO: 1335)] | – | – | – | – | Anti-CD28 Fab signal in the presence of CD28 (phage binding ELISA) [5]: 0.08 |
| YCDGHSPQYIQKCL (tested as crude clonal phage supernatant) [Phage-1016 (Peptide-87 library peptide, SEQ ID NO: 1332)] | – | – | – | – | Anti-CD28 Fab signal in the presence of CD28 (phage binding ELISA) [5]: 0.07 |
| YCDGHAEEYMAKCL (Tested as clonal phage supernatant) [Phage-1038] | – | – | 1.45 | 0.06 | – |
| YCQGHIEPYLAKCL (Tested as clonal phage supernatant) [Phage-1036] | – | – | 1.46 | 0.05 | – |
| YCDGHLAVYMAKCL (tested as crude clonal phage supernatant) [Phage-1006] | – | – | – | – | Phage binding ELISA, Anti-CD28 Fab signal [1]: 1.52; Phage binding ELISA, Anti-CD28 Fab signal in the presence of CD28 [2]: 0.08 |
| YCDGHSLQYMSKCL (Tested as clonal phage supernatant) [Phage-1039] | – | – | 1.45 | 0.06 | – |
| YCEGHSLEHIAKCL [Phage-1034] | 0.07 | 1.46 | – | – | – |
| YCDGHVAEYRHKCL [Phage-1027] | 0.06 | 1.47 | – | – | – |
| YCDGHLAIYMWKCL (Tested as clonal phage supernatant) [Phage-1037] | – | – | 1.45 | 0.09 | – |
| YCDGHSAEYLSKCL (tested as crude clonal phage supernatant) [Phage-1011 (Peptide-87 library peptide, SEQ ID NO: 1327)] | – | – | – | – | Anti-CD28 Fab signal in the presence of CD28 (phage binding ELISA) [5]: 0.07 |
| YCEGHAVEYMAKCL (Tested as clonal phage supernatant) [Phage-1043] | – | – | 1.44 | 0.07 | – |
| YCAGHLEEYMWKCL (tested as crude clonal phage supernatant) [Phage-1009] | – | – | – | – | Phage binding ELISA, Anti-CD28 Fab signal [1]: 1.51; Phage binding ELISA, Anti-CD28 Fab signal in the presence of CD28 [2]: 0.08 |
| YCEGHSQEYMAKCL (Tested as clonal phage supernatant) [Phage-1046] | – | – | 1.44 | 0.06 | – |
| YCAGHTVENMAKCL [Phage-1025] | 0.07 | 1.48 | – | – | – |
| YCSGHLPQYLEKCL (tested as crude clonal phage supernatant) [Phage-1017 (Peptide-87 library peptide, SEQ ID NO: 1333)] | – | – | – | – | Anti-CD28 Fab signal in the presence of CD28 (phage binding ELISA) [5]: 0.31 |
| YCDGHSLEYMVKCL [Phage-1033] | 0.06 | 1.46 | – | – | – |
| YCDGHLAIYIGKCL [Phage-1030] | 0.08 | 1.47 | – | – | – |

| Binder | Anti-CD28 Fab signal in the presence of CD28 [3] | Anti-CD28 Fab (SEQ ID NOs: 696, 697) signal [4] | Anti-CD28 Fab signal (phage binding ELISA) [6] | Anti-CD28 Fab signal in the presence of CD28 (phage binding ELISA) [7] | further results |
| --- | --- | --- | --- | --- | --- |
| YCDGHLPEYITKCL [Phage-1023] | 0.06 | 1.49 | – | – | – |
| YCDGHLEIYMSKCL [Phage-1031] | 0.08 | 1.46 | – | – | – |
| YCDGHKAEYMQKCL (tested as crude clonal phage supernatant) [Phage-1015 (Peptide-87 library peptide, SEQ ID NO: 1331)] | – | – | – | – | Anti-CD28 Fab signal in the presence of CD28 (phage binding ELISA) [5]: 0.06 |
| YCEGHLDQYMTKCL [Phage-1028] | 0.08 | 1.47 | – | – | – |
| YCDGHHKEYLLKCL (tested as crude clonal phage supernatant) [Phage-1018 (Peptide-87 library peptide, SEQ ID NO: 1334)] | – | – | – | – | Anti-CD28 Fab signal in the presence of CD28 (phage binding ELISA) [5]: 0.06 |
| YCAGHLPVYMDKCL (tested as crude clonal phage supernatant) [Phage-1007] | – | – | – | – | Phage binding ELISA, Anti-CD28 Fab signal [1]: 1.52; Phage binding ELISA, Anti-CD28 Fab signal in the presence of CD28 [2]: 0.08 |
| YCEGHVLEYRGKCD [Phage-1026] | 0.09 | 1.48 | – | – | – |
| YCDGHAWQYMWKCL (tested as crude clonal phage supernatant) [Phage-1004] | – | – | – | – | Phage binding ELISA, Anti-CD28 Fab signal [1]: 1.53; Phage binding ELISA, Anti-CD28 Fab signal in the presence of CD28 [2]: 0.07 |
| YCEGHLPQYMTKCI (Tested as clonal phage supernatant) [Phage-1040] | – | – | 1.44 | 0.08 | – |
| YCEGHSAMYIWKCL (tested as crude clonal phage supernatant) [Phage-1008] | – | – | – | – | Phage binding ELISA, Anti-CD28 Fab signal [1]: 1.52; Phage binding ELISA, Anti-CD28 Fab signal in the presence of CD28 [2]: 0.1 |
| YCDGHLPEYMNQCL (Tested as clonal phage supernatant) [Phage-1047] | – | – | 1.44 | 0.07 | – |
| YCEGHLAIYQKKCL (Tested as clonal phage supernatant) [Phage-1042] | – | – | 1.44 | 0.06 | – |
| YCEGHLPIYMEKCL (Tested as clonal phage supernatant) [Phage-1044] | – | – | 1.44 | 0.07 | – |
| YCEGHRPEYMQKCV [Phage-1024] | 0.09 | 1.48 | – | – | – |
| YCAGHTQEYIEKCL [Phage-1029] | 0.06 | 1.47 | – | – | – |
| YCAGHLPQYIQKCL (Tested as clonal phage supernatant) [Phage-1041] | – | – | 1.44 | 0.07 | – |
| YCDGHLPEYLAKCL (tested as crude clonal phage supernatant) [Phage-1005] | – | – | – | – | Phage binding ELISA, Anti-CD28 Fab signal [1]: 1.52; Phage binding ELISA, Anti-CD28 Fab signal in the presence of CD28 [2]: 0.06 |
| YCDGHLLEYMSKCL [Phage-1032] | 0.09 | 1.46 | – | – | – |
| YCEGHSMEYIQKCL (Tested as clonal phage supernatant) [Phage-1045] | – | – | 1.44 | 0.07 | – |
